This note sets out measurements from publication PMC10691330.

Holding throughout (assay): packaging into virions
Experiment [1] addresses HIV-1 P capsid protein (p24) (HIV-1 group P).
The target in experiment [2] is HIV-1 M capsid protein (p24) (HIV-1 group M).
Experiment [3] deals with HIV-1 N capsid protein (p24) (HIV-1 group N).
Experiment [4] concerns the target HIV-1 O capsid protein (p24) (HIV-1 group O).

HA-tagged cyclophilin A (CYPA-HA), sequence (P62937 whole entry): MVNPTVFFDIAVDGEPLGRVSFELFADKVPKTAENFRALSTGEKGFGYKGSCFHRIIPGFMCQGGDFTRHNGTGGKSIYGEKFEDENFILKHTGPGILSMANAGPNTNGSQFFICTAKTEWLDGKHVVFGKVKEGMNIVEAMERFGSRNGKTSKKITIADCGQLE

“HA-tagged cyclophilin A (CYPA-HA) (from UniProt P62937 1-165) (natural protein)”: the percent reduction of virion-associated CYPA by 1 µM CsA in experiment [1] stood at 70%; in experiment [2], 40%; in experiment [3], 70%; in experiment [4], 70%.
